We go through two molecules from patent publication US20260273112A1 (WASHINGTON UNIVERSITY, published 2026).

The target in this assay is T1, Recombinant human CD38 protein (R&D, Catalog 2404-AC-010) (human, UniProt P28907 43-300).
T1 construct: In the MST assay the protein was labeled with NT647 (red-maleimide kit) and used at 5 nM; also called purified CD38 protein; purified human CD38 protein
In words: MST, NT647-labeled recombinant human CD38 at 5 nM, peptide titrated, 37 C. As to the method:
Microscale thermophoresis (MST) assays determined the binding affinity of synthesized peptides to purified CD38 protein and was performed using the Monolith NT.115 (Nanotemper Technologies, Munich, Germany). […] Recombinant human CD38 protein (R&D, Catalog 2404-AC-010, Minneapolis, MN) was labeled with NT647 (Protein labeling kit red-maleimide, Nanotemper Technologies, Germany) and subsequently diluted to 5 nM in MST-2 buffer (50 mM Tris-HCl, pH 7.4, 150 mM NaCl, 10 mM MgCl₂, 2% DMSO, and 0.1% Tween-20). Fluorescence was assessed in MST-2 buffer. Samples were loaded into NT.115 standard capillaries, and analysis was performed at 37° C., 10% LED power, and 40% MST power. The Kd values were calculated from fragment concentration-dependent changes in normalized fluorescence (Fraction Bound) of different CD38 peptides based on the law of mass action using the MO Affinity Analysis v2.3 software.

As usually defined, the Kd is the constant that tells how readily two partners part at equilibrium. For H-KGGSFSRDWTS-NH2 (Synthetic peptide, high score cluster B) [GGS-SL028 (H-Lys-Gly-Gly-Ser-Phe-Ser-Arg-Asp-Trp-Thr-Ser-NH2)], the Kd worked out at 82.6 nM.
On to FSRDWTSGGSK (N-terminal acetyl (AC); C-terminal amide (NH2)) [AC-SL028-GGS (AC-Phe-Ser-Arg-Asp-Trp-Thr-Ser-Gly-Gly-Ser-Lys-NH2)], for which the Kd stood at 243 nM.
